Laboratory results taken from paper PMC4797284.
Values belong to the substance of their own block, whether it stands above or below them.

Assays:
[1] = target: RepDE, chimera of the 21 kDa fragment of RepD fused to the 14 kDa fragment of RepE (residues 35-314) (Staphylococcus aureus) (UniProt P03065); assay: crystal structure
[2] = target: RepDN, chimera of the 21 kDa fragment of RepD fused to the 14 kDa fragment of RepN (residues 35-314) (Staphylococcus aureus) (UniProt P03065); assay: crystal structure
[3] = target: RepSTK1, core domain of the replication initiator protein of cryptic plasmid pSTK1 from Geobacillus stearothermophilus (residues 1-269) (Geobacillus stearothermophilus); assay: crystal structure; RepSTK1 crystals, space group P2(1)2(1)2(1), four molecules per asymmetric unit; protein dialysed against 50 mM Tris-HCl pH 7.5, 700 mM KCl; grown at 294 K as described in ref. 27; data at 100 K

Substance: RepDE, chimera of the 21 kDa fragment of RepD fused to the 14 kDa fragment of RepE (residues 35-314) (from UniProt P03065;P12053)
stoichiometry N [1]: 2

Substance: RepDN, chimera of the 21 kDa fragment of RepD fused to the 14 kDa fragment of RepN (residues 35-314) (from UniProt P03065;P19529)
stoichiometry N [2]: 2

stoichiometry N [3]: 2
Substance: RepSTK1, core domain of the replication initiator protein of cryptic plasmid pSTK1 from Geobacillus stearothermophilus (residues 1-269) (domain or fragment)
